T1: Human CD24 (human, UniProt P25063 27-59, limits assumed)
T1 chain (looked up): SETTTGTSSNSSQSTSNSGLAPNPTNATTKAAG

T2: human CD24 on cells (human, UniProt P25063 27-59)
T2 construct: whole, on cells; One molecule for all cell lines; the cell line is named under assay or readout; also called cell surface CD24; cell-based CD24
T2 chain (looked up): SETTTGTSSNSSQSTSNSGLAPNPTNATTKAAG


Tests used:
[1] = molecular target: T1, Human CD24; assay: SPR, second 1:1 binding column set
[2] = molecular target: T1, Human CD24; assay: SPR affinity ranking, 1:1 binding, analyte conc. 19.71 nM
[3] = molecular target: T1, Human CD24; assay: affinity ranking; antibody as ligand, Human CD24 as analyte
[4] = molecular target: T2, human CD24 on cells; assay: flow cytometry (GMFI), SKOV3 cells; EC50 table under the graphs [Cont'd) B]
[5] = molecular target: T2, human CD24 on cells; assay: flow cytometry (GMFI), MCF-7 cells; EC50 table under the graphs

Binder	Kd [1] [nM]	koff [1] [s⁻¹]	kon [1] [M⁻¹ s⁻¹]	Kd [2] [nM]	koff [2] [s⁻¹]	kon [2] [M⁻¹ s⁻¹]	Kd [3] [nM]	koff [3] [s⁻¹]	kon [3] [M⁻¹ s⁻¹]	EC50 [4] [µg/mL]	EC50 [5] [µg/mL]
Antibody No 3, lead clone of 4451H (HC N35G; LC L33G, T97I) (antibody, V domains shown) VH: QVQLVQSGAEVKKPGASVKVSCKASGYDFTGYHMGWVRQAPGQGLEWMGEINPITSDKTFNQKFKSRVTMTRDTSISTAYMELSRLRSDDTAVYYCARRDYGTSLDYWGQGTTVTVSS VL: DIQLTQSPSFLSASVGDRVTITCRASKSISKYGAWYQQKPGKAPKLLIYAGSTLHSGIPSRFRGSGSGTEFTLTISSLQPEDFATYYCQQHNEYPIIFGQGTKLEIK	4.6	0.00766	1.66e+06	7.09	0.00827	1.17e+06					
VH1 + VL1 (humanized 4451) (antibody, V domains shown, IgG expressed in HEK293) VH: QVQLVQSGAEVKKPGASVKVSCKASGYDFTGYHMNWVRQAPGQGLEWMGEINPITSDKTFNQKFKSRVTMTRDTSISTAYMELSRLRSDDTAVYYCARRDYGTSLDYWGQGTTVTVSS VL: DIQLTQSPSFLSASVGDRVTITCRASKSISKYLAWYQQKPGKAPKLLIYAGSTLHSGVPSRFSGSGSGTEFTLTISSLQPEDFATYYCQQHNEYPITFGQGTKLEIK							17.6	0.0169	958000	0.45	0.43
Antibody No 14, lead clone of 4451H (HC T59Y; LC T97I) (antibody, V domains shown) VH: QVQLVQSGAEVKKPGASVKVSCKASGYDFTGYHMNWVRQAPGQGLEWMGEINPITSDKYFNQKFKSRVTMTRDTSISTAYMELSRLRSDDTAVYYCARRDYGTSLDYWGQGTTVTVSS VL: DIQLTQSPSFLSASVGDRVTITCRASKSISKYLAWYQQKPGKAPKLLIYAGSTLHSGIPSRFRGSGSGTEFTLTISSLQPEDFATYYCQQHNEYPIIFGQGTKLEIK				8.3	0.0604	7.28e+06					
Antibody No 15 (4451HM15), lead clone of 4451H (HC N35G, T59Y; LC K27A) (antibody, V domains shown) VH: QVQLVQSGAEVKKPGASVKVSCKASGYDFTGYHMGWVRQAPGQGLEWMGEINPITSDKYFNQKFKSRVTMTRDTSISTAYMELSRLRSDDTAVYYCARRDYGTSLDYWGQGTTVTVSS VL: DIQLTQSPSFLSASVGDRVTITCRASASISKYLAWYQQKPGKAPKLLIYAGSTLHSGIPSRFRGSGSGTEFTLTISSLQPEDFATYYCQQHNEYPITFGQGTKLEIK	3.98	0.00509	1.28e+06	7.05	0.00755	1.07e+06					
VH2 + VL4 (humanized 4451) (antibody, V domains shown, IgG expressed in HEK293) VH: QVQLVQSGAEVKKPGASVKVSCKASGYDFTGYHMNWVRQAPGQGLEWIGEINPITSDKTFNQKFKSRVTMTVDTSISTAYMELSRLRSDDTAVYYCARRDYGTSLDYWGQGTTVTVSS VL: DIQLTQSPSFLSASVGDRVTIYCRASKSISKYLAWYQQKPGKAPRLLIYAGSTLHSGIPSRFRGSGSGTEFTLTISSLQPEDFATYYCQQHNEYPITFGQGTKLEIK							19.7	0.0229	1.16e+06		
Antibody No 11, lead clone of 4451H (HC T59Y; LC K27A) (antibody, V domains shown) VH: QVQLVQSGAEVKKPGASVKVSCKASGYDFTGYHMNWVRQAPGQGLEWMGEINPITSDKYFNQKFKSRVTMTRDTSISTAYMELSRLRSDDTAVYYCARRDYGTSLDYWGQGTTVTVSS VL: DIQLTQSPSFLSASVGDRVTITCRASASISKYLAWYQQKPGKAPKLLIYAGSTLHSGIPSRFRGSGSGTEFTLTISSLQPEDFATYYCQQHNEYPITFGQGTKLEIK				14.1	0.0171	1.21e+06					
Antibody No 6, lead clone of 4451H (HC N35G; LC L33G) (antibody, V domains shown) VH: QVQLVQSGAEVKKPGASVKVSCKASGYDFTGYHMGWVRQAPGQGLEWMGEINPITSDKTFNQKFKSRVTMTRDTSISTAYMELSRLRSDDTAVYYCARRDYGTSLDYWGQGTTVTVSS VL: DIQLTQSPSFLSASVGDRVTITCRASKSISKYGAWYQQKPGKAPKLLIYAGSTLHSGIPSRFRGSGSGTEFTLTISSLQPEDFATYYCQQHNEYPITFGQGTKLEIK	3.86	0.00763	1.98e+06	5.11	0.00796	1.56e+06					
VH2 + VL2 (humanized 4451) (antibody, V domains shown, IgG expressed in HEK293) VH: QVQLVQSGAEVKKPGASVKVSCKASGYDFTGYHMNWVRQAPGQGLEWIGEINPITSDKTFNQKFKSRVTMTVDTSISTAYMELSRLRSDDTAVYYCARRDYGTSLDYWGQGTTVTVSS VL: DIQLTQSPSFLSASVGDRVTITCRASKSISKYLAWYQQKPGKAPRLLIYAGSTLHSGVPSRFRGSGSGTEFTLTISSLQPEDFATYYCQQHNEYPITFGQGTKLEIK							22	0.0234	1.06e+06		0.75
Antibody No 10, lead clone of 4451H (HC T59Y; LC L33G, T97I) (antibody, V domains shown) VH: QVQLVQSGAEVKKPGASVKVSCKASGYDFTGYHMNWVRQAPGQGLEWMGEINPITSDKYFNQKFKSRVTMTRDTSISTAYMELSRLRSDDTAVYYCARRDYGTSLDYWGQGTTVTVSS VL: DIQLTQSPSFLSASVGDRVTITCRASKSISKYGAWYQQKPGKAPKLLIYAGSTLHSGIPSRFRGSGSGTEFTLTISSLQPEDFATYYCQQHNEYPIIFGQGTKLEIK				8.7	0.0175	2.01e+06					
Antibody No 9, lead clone of 4451H (HC T59Y; LC S30K, T97I) (antibody, V domains shown) VH: QVQLVQSGAEVKKPGASVKVSCKASGYDFTGYHMNWVRQAPGQGLEWMGEINPITSDKYFNQKFKSRVTMTRDTSISTAYMELSRLRSDDTAVYYCARRDYGTSLDYWGQGTTVTVSS VL: DIQLTQSPSFLSASVGDRVTITCRASKSIKKYLAWYQQKPGKAPKLLIYAGSTLHSGIPSRFRGSGSGTEFTLTISSLQPEDFATYYCQQHNEYPIIFGQGTKLEIK				11.4	0.06	5.27e+06					
Antibody No 12, lead clone of 4451H (HC T59Y; LC S30K) (antibody, V domains shown) VH: QVQLVQSGAEVKKPGASVKVSCKASGYDFTGYHMNWVRQAPGQGLEWMGEINPITSDKYFNQKFKSRVTMTRDTSISTAYMELSRLRSDDTAVYYCARRDYGTSLDYWGQGTTVTVSS VL: DIQLTQSPSFLSASVGDRVTITCRASKSIKKYLAWYQQKPGKAPKLLIYAGSTLHSGIPSRFRGSGSGTEFTLTISSLQPEDFATYYCQQHNEYPITFGQGTKLEIK				11.1	0.168	1.52e+07					
Antibody No 13, lead clone of 4451H (HC T59Y; LC L33G) (antibody, V domains shown) VH: QVQLVQSGAEVKKPGASVKVSCKASGYDFTGYHMNWVRQAPGQGLEWMGEINPITSDKYFNQKFKSRVTMTRDTSISTAYMELSRLRSDDTAVYYCARRDYGTSLDYWGQGTTVTVSS VL: DIQLTQSPSFLSASVGDRVTITCRASKSISKYGAWYQQKPGKAPKLLIYAGSTLHSGIPSRFRGSGSGTEFTLTISSLQPEDFATYYCQQHNEYPITFGQGTKLEIK				9.68	0.0237	2.45e+06					
VH4 + VL4 (humanized 4451) (antibody, V domains shown, IgG expressed in HEK293) VH: QVQLVQSGAEVKKPGASVKVSCKASGYDFTGYHMNWVKQAPGQGLEWIGEINPITSDKTFNQKFKSRATMTVDRSISTAYMELSRLRSDDTAVYYCARRDYGTSLDYWGQGTTVTVSS VL: DIQLTQSPSFLSASVGDRVTIYCRASKSISKYLAWYQQKPGKAPRLLIYAGSTLHSGIPSRFRGSGSGTEFTLTISSLQPEDFATYYCQQHNEYPITFGQGTKLEIK							7.94	0.0122	1.53e+06		0.39
Antibody No 18, lead clone of 4451H (HC N35G, T59Y; LC T97I) (antibody, V domains shown) VH: QVQLVQSGAEVKKPGASVKVSCKASGYDFTGYHMGWVRQAPGQGLEWMGEINPITSDKYFNQKFKSRVTMTRDTSISTAYMELSRLRSDDTAVYYCARRDYGTSLDYWGQGTTVTVSS VL: DIQLTQSPSFLSASVGDRVTITCRASKSISKYLAWYQQKPGKAPKLLIYAGSTLHSGIPSRFRGSGSGTEFTLTISSLQPEDFATYYCQQHNEYPIIFGQGTKLEIK				8.83	0.015	1.7e+06					
Antibody No 8, lead clone of 4451H (HC T59Y; LC K27A, T97I) (antibody, V domains shown) VH: QVQLVQSGAEVKKPGASVKVSCKASGYDFTGYHMNWVRQAPGQGLEWMGEINPITSDKYFNQKFKSRVTMTRDTSISTAYMELSRLRSDDTAVYYCARRDYGTSLDYWGQGTTVTVSS VL: DIQLTQSPSFLSASVGDRVTITCRASASISKYLAWYQQKPGKAPKLLIYAGSTLHSGIPSRFRGSGSGTEFTLTISSLQPEDFATYYCQQHNEYPIIFGQGTKLEIK				15.8	0.0196	1.24e+06					
Antibody No 17, lead clone of 4451H (HC N35G, T59Y; LC L33G) (antibody, V domains shown) VH: QVQLVQSGAEVKKPGASVKVSCKASGYDFTGYHMGWVRQAPGQGLEWMGEINPITSDKYFNQKFKSRVTMTRDTSISTAYMELSRLRSDDTAVYYCARRDYGTSLDYWGQGTTVTVSS VL: DIQLTQSPSFLSASVGDRVTITCRASKSISKYGAWYQQKPGKAPKLLIYAGSTLHSGIPSRFRGSGSGTEFTLTISSLQPEDFATYYCQQHNEYPITFGQGTKLEIK	3.41	0.00419	1.23e+06	4.42	0.0069	1.56e+06					
Antibody No 16, lead clone of 4451H (HC N35G, T59Y; LC S30K) (antibody, V domains shown) VH: QVQLVQSGAEVKKPGASVKVSCKASGYDFTGYHMGWVRQAPGQGLEWMGEINPITSDKYFNQKFKSRVTMTRDTSISTAYMELSRLRSDDTAVYYCARRDYGTSLDYWGQGTTVTVSS VL: DIQLTQSPSFLSASVGDRVTITCRASKSIKKYLAWYQQKPGKAPKLLIYAGSTLHSGIPSRFRGSGSGTEFTLTISSLQPEDFATYYCQQHNEYPITFGQGTKLEIK	6.99	0.00808	1.16e+06	7.51	0.016	2.13e+06					
VH + VL (4451 parental variable regions, Table 7) (antibody, V domains shown) VH: EVQLQQSGPELVKPGASVKISCKASGYDFTGYHMNWVKQSPEKSLEWIGEINPITSDKTFNQKFKSKATLTVDRSSSTAYMYLKSLTSEDSAVYYCARRDYGTSLDYWGQGTTLTVSS VL: DVQITQSPSYLAASPGETITIYCRASKSISKYLAWYQEKPEKTNRLLIYAGSTLHSGIPSRFRGSGSGKDFTLTVSGLEPEDFAMYYCQQHNEYPITFGAGTKLELK							3.23	0.00937	2.9e+06	0.43	0.4
